We go through five molecules from US7387779B2, “Anti-angiogenic proteins and fragments and methods of use thereof” (Beth Israel Deaconess Medical Center, priority 1998, dated 2008).

For experiment [1], the system named is mouse aortic endothelial cells (MAE). The experiment in a line: Endothelial tube formation on Matrigel. The format is cell-based. Particulars: for ED50: endothelial tube assay (FIGS. 30 and 31). The protocol: To measure inhibition of endothelial tube formation, 320 μl of Matrigel (Collaborative Biomedical Products, Bedford, Mass., USA) was added to each well of a 24-well plate and allowed to polymerize (Grant, D. S. et al., 1994, Pathol. Res. Pract. 190:854-63). A suspension of 25,000 mouse aortic endothelial cells (MAE) in EGM-2 medium (Clonetics Corp., San Diego, Calif., USA) without antibiotic was passed into each well coated with Matrigel. The cells were treated with increasing concentrations of either Arresten, BSA, sterile PBS or the 7S domain. All assays were performed in triplicate. Cells were incubated for 24-48 hours at 37° C. and viewed using a CK2 Olympus microscope (3.3 ocular, 10× objective). The cells were then photographed using 400 DK coated TMAX film (Kodak). Cells were stained with diff-quik fixative (Sigma Chemical Company, St. Louis, Mo., USA) and photographed again. Ten fields were viewed, and the tubes counted and averaged.
Matrigel (Collaborative Biomedical Products, Bedford, Mass., USA) was added ([…]) to each well of a 24 well plate and allowed to polymerize (Grant, D. S. et al., supra). A suspension of 25,000 mouse aortic endothelial cells (MAE) in EGM-2 (Clonetics Corporation, San Diego, Calif., USA) medium without antibiotic was passed into each well coated with Matrigel. The cells were treated with either Canstatin, BSA, sterile PBS or α5-NC1 domain in increasing concentrations. All assays were performed in triplicate. Cells were incubated for 24-48 hours at 37° C. and viewed using a CK2 Olympus microscope (3.3 ocular, 10× objective). The cells were then photographed using 400 DK coated TMAX film (Kodak). Cells were stained with diff-quik fixative (Sigma Chemical Co., St. Louis, Mo., USA) and photographed again (Grant, D. S. et al., 1994, Pathol. Res. Pract. 190:854-63). Ten fields were viewed, tubes counted and averaged.
Matrigel (Collaborative Biomedical Prods., Bedford, Mass., USA) was added ([…]) to each well of a 24-well plate and allowed to polymerize (Grant, D. S. et al., 1994, Pathol. Res. Pract. 190:854-63). A suspension of 25,000 MAE cells in EGM-2 medium (Clonetics Corporation, San Diego, Calif., USA) without antibiotic was passed into each well coated with Matrigel (Grant, D. S. et al., 1994, Pathol. Res. Pract. 190:854-63). The cells were treated with either Tumstatin, BSA or 7S domain in increasing concentrations. Control cells were incubated with sterile PBS. All assays were performed in triplicate. Cells were incubated for 24-48 hours at 37° C. and viewed using a CK2 Olympus microscope (magnification of 3.3× ocular, 10× objective). The cells were then photographed using 400 DK coated TMAX film (Kodak). Cells were stained with diff-quik fixative (Sigma Chemical Co.) and photographed again (Grant, D. S. et al., 1994, Pathol. Res. Pract. 190:854-63). Ten fields were viewed, and the number of tubes were counted by two investigators unaware of the experimental protocols, and averaged.
Fragments and mutants of Arresten and Canstatin were also made according to the Pseudomonas elastase digestions of Mariyama et al. (1992, J. Biol. Chem. 267:1253-58). The digest was resolved by gel filtration HPLC and the resultant fragments were analyzed by SDS-PAGE and evaluated in the endothelial tube assay described above. These fragments included a 12 kDa fragment of Arresten, an 8 kDa fragment of Arresten, and a 10 kDa fragment of Canstatin. In addition, two fragments of Tumstatin (‘333’ and ‘334’) were generated by PCR cloning.

The test system of a further experiment is C-PAE cells. The experiment can be described thus: Competitive proliferation assay with anti-Tum-4 antibody. The format is cell-based, bovine. To be noted: 1.5 μg/ml. On the procedure:
To determine if Turn-1 's inhibition of endothelial cell proliferation could be nullified by anti-Tum-4 antibody, a competitive proliferation assay was performed as described in Example 26, above. Tum-1 was preincubated with anti-Tum-4 antibody for the purpose of at least partially blocking the αvβ3 integrin binding site. It was then used in endothelial cell proliferation assays.
The results are shown in FIGS. 38A and 38B, which are histograms showing proliferation of C-PAE cells (y-axis) treated with 1.5 μg/ml Tum-1 (FIG. 38A) or Tum-2 (FIG. 38B) that had been preincubated with anti-Tum-4 antibody (1:100, 1:200, 1:500 dilution) (x-axis). Each column represents the mean ±the standard error of the mean for triplicate wells. The experiments were repeated three times. Asterisks indicate P<0.05 by one-tailed Student's t-test.

In another experiment the test system is MLEC β3−/−. The experiment in a line: Protein synthesis and cap-dependent translation in β3-integrin deficient endothelial cells. The format is cell-based, mouse. Particulars: 4.5 μM; rapamycin 100 ng/ml. From the text: Therefore, to evaluate the effect of tumstatin peptides on cap-dependent and independent translation, endothelial cells were isolated from lungs of 12-week-old mice that were deficient in the expression of αvβ3 integrin (i.e., 3 integrin-deficient mice), and also their wild-type counterparts (Hodivala-Dilke, K. M. et al., 1999, J. Clin. Invest. 103:229-38). Briefly, ICAM-2 expressing MLEC were enriched using rat anti-mouse ICAM-2 (# 01800D, PharMingen, San Diego, Calif., USA) conjugated to magnetic beads (Dynabeads M-450, Dynal, Oslo, Norway). MLEC were maintained in 40% Ham's F-12,40% DME-Low Glucose, 20% FBS supplemented with heparin, endothelial mitogen (Biomedical Technologies, Inc., Cambridge, Mass., USA), glutamine and penicillin/streptomycin. Wild-type and β3-integrin-deficient mouse embryonic fibroblasts were prepared (Hodivala-Dilke, K. M. et al., 1999, J. Clin. Invest. 103:229-38). MEFs were maintained in DMEM containing 10% FBS. MLEC were characterized for homogeneity by morphological observations and by immunofluorescence staining for endothelial-specific markers. Cells between passage 3 and 6 were used for the experiments.

B1: Canstatin: NC1 domain of the α2 chain of Type IV collagen (SEQ ID NO:6) (protein, listed as Homo sapiens)
chain: VSIGYLLVKHSQTDQEPMCPVGMNKLWSGYSLLYFEGQEKAHNQDLGLAGSCLARFSTMPFLYCNPGDVCYYASRNDKSYWLSTTAPLPMMPVAEDEIKPYISRCSVCEAPAIAIAVHSQDVSIPHCPAGWRSLWIGYSFLMHTAAGDEGGGQSLVSPGSCLEDFRATPFIECNGGRGTCHYYANKYSFWLTTIPEQSFQGSPSADTLKAGLIRTHISRCQVCMKNL
Turning to B1, in experiment [1] (1 mg of Canstatin protein produced in 293 cells), the “inhibition of tube formation” value is “near complete inhibition”. In experiment [1], this molecule displayed an ED50 of 0.4 µg/mL.

B2: Tum-1: residues 54 to 244 of Tumstatin, lacking the N-terminal 53 amino acids (SEQ ID NO:22) (protein)
chain: QRAHGQDLGTLGSCLQRFTTMPFLFCNVNDVCNFASRNDYSYWLSTPALMPMNMAPITGRALEPYISRCTVCEGPAIAIAVHSQTTDIPPCPHGWISLWKGFSFIMFTSAGSEGTGQALASPGSCLEEFRASPFLECHGRGTCNYYSNSYSFWLASLNPERMFRKPIPSTVKAGELEKIISRCQVCMKKRH
modifications: Tum-1 (Tumstatin N-53) (amino acids 54-244 of SEQ ID NO10)
With B2, the “anti-proliferative effect after pre-incubation with anti-Tum-4 antibody” value in the experiment with C-PAE cells is “not altered”.

B3: endostatin: tumor associated angiogenesis inhibitor used as comparator (protein, UniProt P39060 1572-1754, looked up)
Endostatin: HSHRDFQPVLHLVALNSPLSGGMRGIRGADFQCFQQARAVGLAGTFRAFLSSRLQDLYSIVRRADRAAVPIVNLKDELLFPSWEALFSGSEGPLKPGARIFSFDGKDVLRHPTWPQKSVWHGSDPNGRRLTESYCETWRTEAPSATGQASSLLGGRLLGQSAASCHHAYIVLCIENSFMTASK
modifications: Endostatin
Consider B3, for which the “cap-dependent protein synthesis in αvβ3 integrin deficient (β3−/−) endothelial cells” value in the experiment with MLEC β3−/− was “did not exhibit this property”.

B4: Tum-2: residues 1 to 132 of Tumstatin (SEQ ID NO:23) (protein)
chain: GLKGKRGDSGSPATWTTRGFVFTRHSQTTAIPSCPEGTVPLYSGFSFLFVQGNQRAHGQDLGTLGSCLQRFTTMPFLFCNVNDVCNFASRNDYSYWLSTPALMPMNMAPITGRALEPYISRCTVCEGPAIAI
modifications: Tum-2 (amino acids 1-132 of SEQ ID NO10)
For B4, in the experiment on C-PAE cells, the “anti-proliferative effect after pre-incubation with anti-Tum-4 antibody” value is “not affected”.

B5: Tumstatin: NC1 domain of the α3 chain of type IV collagen, residues 1-244 (SEQ ID NO:10) (protein, listed as Homo sapiens)
chain: GLKGKRGDSGSPATWTTRGFVFTRHSQTTAIPSCPEGTVPLYSGFSFLFVQGNQRAHGQDLGTLGSCLQRFTTMPFLFCNVNDVCNFASRNDYSYWLSTPALMPMNMAPITGRALEPYISRCTVCEGPAIAIAVHSQTTDIPPCPHGWISLWKGFSFIMFTSAGSEGTGQALASPGSCLEEFRASPFLECHGRGTCNYYSNSYSFWLASLNPERMFRKPIPSTVKAGELEKIISRCQVCMKKRH
In the case of B5, in experiment [1], the “concentration of maximum inhibition” value was 800 to 1000 ng/mL and the ED50 is 0.55 µg/mL. In experiment [1] (1 mg/ml of protein, produced in 293 cells), the “Percentage of tube formation after treatment” value is 14.0±4.0. In addition, the “cap-dependent protein synthesis in αvβ3 integrin deficient (β3−/−) endothelial cells” value in the experiment with MLEC β3−/− is “did not have any effect”.
